The data set deals with human transferrin receptor (hTfR, hTfR1) extracellular domain (Homo sapiens, UniProt P02786 89-760). In words: SPR. (In SPR one partner is held on a chip, and binding of the other changes the refractive index at the surface.)
Sequence of human transferrin receptor (hTfR, hTfR1) extracellular domain (P02786 89-760): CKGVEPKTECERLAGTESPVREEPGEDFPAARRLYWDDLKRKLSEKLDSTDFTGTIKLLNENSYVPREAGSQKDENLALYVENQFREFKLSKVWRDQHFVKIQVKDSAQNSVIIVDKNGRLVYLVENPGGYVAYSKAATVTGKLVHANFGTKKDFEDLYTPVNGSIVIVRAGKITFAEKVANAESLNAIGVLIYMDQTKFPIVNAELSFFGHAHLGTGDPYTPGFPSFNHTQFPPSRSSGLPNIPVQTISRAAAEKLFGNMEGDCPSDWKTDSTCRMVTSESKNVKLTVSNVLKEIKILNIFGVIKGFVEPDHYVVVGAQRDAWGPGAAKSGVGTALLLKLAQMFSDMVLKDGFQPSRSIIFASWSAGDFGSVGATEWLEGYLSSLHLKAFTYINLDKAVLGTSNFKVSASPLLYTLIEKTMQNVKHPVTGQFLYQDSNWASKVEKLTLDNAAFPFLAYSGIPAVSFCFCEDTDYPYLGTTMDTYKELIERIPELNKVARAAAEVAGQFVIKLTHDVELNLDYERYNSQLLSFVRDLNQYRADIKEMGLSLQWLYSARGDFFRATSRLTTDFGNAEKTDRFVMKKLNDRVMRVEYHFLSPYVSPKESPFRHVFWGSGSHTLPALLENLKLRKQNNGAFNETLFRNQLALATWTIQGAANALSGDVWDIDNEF

Take AAUGCGUUCACGUUUAUUCACAUUUUUGAAUU (structured_RNA, 2'-F pyrimidines presumed, not restated for truncates) [TR14 ST1-2 (32 nt)]: the binding result is reported as “no binding”.
As to GCUCAAUGCGUUCACGUUUAUUCACAUUUUUGAAUUGAGC (structured_RNA, 2'-F pyrimidines presumed, not restated for truncates) [TR14 ST1-1 (40 nt)], the binding result is listed as “no binding”.

The record behind these values is article PMC6796740.
